Biological target: T1, HLA-A2*0201 on T2 cells (human)
T1 construct: whole, on cells; also called HLA-A2 antigen
Test: T2 cell HLA-A2 stabilisation assay, flow cytometry
Method: T2 cells incubated with peptides were stained for the presence of cell surface HLA-A2 antigen using flow cytometry. Fluorescent intensity of stained cells was used to determine the ability of test peptides to bind and therefore stabilise HLA-A2. […] The RBI was calculated for each peptide from the obtained mean fluorescence intensity (MFI) of T2 cells incubated with test peptide divided by the MFI obtained from cells incubated with 100% DMSO alone.
T2 cells were washed twice in serum-free RPMI and incubated overnight at 37° C. in a round-bottomed 96 well plate in 50 μl serum-free RPMI containing 160,000 cells and final concentrations of 100, 10 and 1 μM of peptide. A negative control was provided by adding dilute DMSO without peptide to 2 wells. […] After washing in phosphate buffered saline (PBS) (Oxoid, UK) containing 0.1% bovine serum albumin (BSA) (Sigma, USA), the cells were incubated on ice for 30 minutes with 20 μl of mouse antihuman HLA-A2 antibody MA2.1 (ATCC, UK). Following washing with PBS+BSA, 100 μl of a 1/100 dilution of FITC labelled goat anti-mouse IgG (Sigma, USA) was added and the cells incubated for 30 minutes on ice. The cells were washed twice using PBS+BSA, fixed in 500 μl Isoton and allowed to normalise to room temperature for 20 minutes prior to analysis by flow cytometry.

B1: PAP.15 (peptide)
peptide: ALASCFCFFC
  binding result: no binding (tested: 100 µM, 10 µM and 1 µM)
